In PMC8058080 one finds stoichiometry N data, which are given here for one substance.

The experiment has as its target Acaryochloris marina photosystem I (PSI) monomer, 11 subunits (PsaA, PsaB, PsaC, PsaD, PsaE, PsaF, PsaJ, PsaK, PsaL, PsaM, Psa27) (Acaryochloris marina) (UniProt B0C474). Nature of the experiment: cryo-EM structure; PSI trimer purified from A. marina; 50 mM MES-NaOH pH 6.5, 5 mM CaCl2, 10 mM MgCl2, 0.002% LMNG; 2.58 Å with C3 symmetrization, 2.97 Å without.

With “Acaryochloris marina photosystem I (PSI) monomer, 11 subunits (PsaA, PsaB, PsaC, PsaD, PsaE, PsaF, PsaJ, PsaK, PsaL, PsaM, Psa27) (from UniProt B0C474 1-753; B0C475 1-736; B0CB42 1-81; B0C8F1 1-139; B0C5D5 1-89; B0C7S7 1-167; B0C7S6 1-51; B0C7S4 1-153; B0C4H4 1-31) (complex)”, the stoichiometry N came out at 3.

The term stoichiometry N denotes the number of molecules, sites or subunits per partner or assembly.
